Measurements published in PMC2175261 (The Journal of Cell Biology, 2000).
Read-outs that look alike come from different tables or passages of the source.

Experiments:
pull-down [1] = biological target: the molecule itself; assay: pull-down
pull-down [2] = biological target: the molecule itself; assay: pull-down; remark: listed apart in the source

B1: C2B domain of synaptotagmin Ib (residues 248–421) (domain or fragment, rat, UniProt P21707 248-421, looked up)
chain: NTVDFGHVTEEWRDLQSAEKEEQEKLGDICFSLRYVPTAGKLTVVILEAKNLKKMDVGGLSDPYVKIHLMQNGKRLKKKKTTIKKNTLNPYYNESFSFEVPFEQIQKVQVVVTVLDYDKIGKNDAIGKVFVGYNSTGAELRHWSDMLANPRRPIAQWHTLQVEEEVDAMLAVKK
B1: binds (pull-down [1]).

B2: cytoplasmic domain of synaptotagmin Ib, D230,232N mutant (domain or fragment, rat, UniProt P21707 96-421, looked up)
chain: GGKNAINMKDVKDLGKTMKDQALKDDDAETGLTDGEEKEEPKEEEKLGKLQYSLDYDFQNNQLLVGIIQAAELPALDMGGTSDPYVKVFLLPDKKKKFETKVHRKTLNPVFNEQFTFKVPYSELGGKTLVMAVYNFNRFSKHDIIGEFKVPMNTVDFGHVTEEWRDLQSAEKEEQEKLGDICFSLRYVPTAGKLTVVILEAKNLKKMDVGGLSDPYVKIHLMQNGKRLKKKKTTIKKNTLNPYYNESFSFEVPFEQIQKVQVVVTVLDYDKIGKNDAIGKVFVGYNSTGAELRHWSDMLANPRRPIAQWHTLQVEEEVDAMLAVKK
B2: binds (pull-down [2]).
